Target: T1, CD4抗原 (UniProt P01730 26-458, limits assumed)
T1 construct: whole, on cells; also called 细胞表面的CD4抗原
Test: flow cytometry on Nalm6-CD4 cells; antibody from 4 μg/mL in 4-fold steps, 10 concentrations; APC goat anti-mouse IgG secondary

EC50: 0.101 µg/mL
B1: 抗CD4-1抗体 (antibody, V domains shown)
VH: EVQLQQSGPELVKPGDSVKMSCKASGYTFTDYFMDWVKQSHGKSLEWIGYIYPNNGGTNNNQKFKGKATLTVDKSSSTAYMELHSLTSEDSAVYYCARRGYDEGFAYWGQGTLVTVSS
VL: DILLTQSPAILSVSPGERVSFSCRASQIIGTSILWYQQRTNGSPRLLIKYASESISGIPSRFSGSGSGTDFTLSINSVESEDIADYYCQQSNTWPFTFGGGTKLEMK
notes: Detected with a goat anti-mouse IgG secondary antibody; also called 抗CD4抗体; 抗CD4(CD4-1)抗体
